Measurements published in patent US20110124071A1, “METHODS AND COMPOSITIONS FOR PRODUCING HYDROCARBONS” (priority 2009, published 2011).
Read-outs that look alike come from different tables or passages of the source.

What was measured:
[1] = target: T1, PCC7942_orf1594 protein (Synechococcus elongatus, UniProt Q54765); experiment: acyl-ACP or acyl-CoA reductase enzyme assay, GC/MS; format: biochemical
T1 construct: His-tag (C); made in house; host or cells: E. coli BL21 (DE3)
T1 sequence (Q54765 1-341): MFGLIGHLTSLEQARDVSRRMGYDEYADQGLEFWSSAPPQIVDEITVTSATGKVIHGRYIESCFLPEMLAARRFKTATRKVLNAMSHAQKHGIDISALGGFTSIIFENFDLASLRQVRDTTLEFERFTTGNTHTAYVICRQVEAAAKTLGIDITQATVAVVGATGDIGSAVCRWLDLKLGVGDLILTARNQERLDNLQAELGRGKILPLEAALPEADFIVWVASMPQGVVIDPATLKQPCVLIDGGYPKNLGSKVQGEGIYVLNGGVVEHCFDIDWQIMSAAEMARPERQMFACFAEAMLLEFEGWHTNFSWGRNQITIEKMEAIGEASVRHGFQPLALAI
Procedure: The genomic DNA encoding S. elongatus PCC7492 orf1594 (SEQ ID NO: 66) was cloned into the NcoI and XhoI sites of vector pET-28b under the control of the T7 promoter. The resulting PCC7942_orf1594 protein contained a C-terminal His-tag. An E. coli BL21 strain (DE3) (Invitrogen) was transformed with the plasmid and PCC7942_orf1594 protein was expressed and purified as described in Example 22. The protein solution was stored in the following buffer: 50 mM sodium phosphate, pH 7.5, 100 mM NaCl, 1 mM THP, 10% glycerol. Protein concentration was determined using the Bradford assay (Bio-Rad). 2 mg/ml of PCC7942 orf1594 protein was obtained.
To test PCC7942_orf1594 protein for acyl-ACP or acyl-CoA reductase activity, the following enzyme assays were set-up. 100 μl reactions were set-up in 50 mM Tris-HCl buffer at pH 7.5 with the following components at their respective final concentrations: 10 μM of purified PCC7942_orf1594 protein, 0.01-1 mM acyl-CoA or acyl-ACP, 2 mM MgCl2, 0.2-2 mM NADPH. The reactions were incubated for 1 h at 37° C. and where stopped by adding 100 μl ethyl acetate (containing 5 mg/l 1-octadecene as internal standard). Samples were vortexed for 15 min and centrifuged at max speed for 3 min for phase separation. 80 μl of the top layer were transferred into GC glass vials and analyzed by GC/MS as described in Example 26. The amount of aldehyde formed was calculated based on the internal standard.

[2] = system: E. coli MG1655; experiment: Coexpression of putative decarbonylase with S. elongatus PCC7942 orf1594 in E. coli, GC-MS of extracts; format: cell-based; conditions: coexpressed with S. elongatus PCC7942 orf1594 in E. coli MG1655, M9 minimal media
Procedure: After a 1 μl splitless injection (inlet temperature held at 300° C.) onto the GC/MS column, the oven was held at 100° C. for 3 mins. The temperature was ramped up to 320° C. at a rate of 20° C./min. The oven was held at 320° C. for an additional 5 min. The flow rate of the carrier gas helium was 1.3 ml/min. The MS quadrapole scanned from 50 to 550 m/z. Retention times and fragmentation patterns of product peaks were compared with authentic references to confirm peak identity.
The genomic DNA encoding Synechococcus elongatus PCC7942 orf1594 (YP—400611; putative aldehyde-generating enzyme) (SEQ ID NO: 65) was amplified and cloned into the NcoI and EcoRI sites of vector OP-80 (pCL1920 derivative) under the control of the Ptrc promoter. The resulting construct (“OP80-PCC7942—1594”) was transformed into E. coli MG1655 and the cells were grown at 37° C. in M9 minimal media with 1% (w/v) glucose as carbon source and supplemented with 100 μg/ml spectinomycin. When the culture reached OD600 of 0.8-1.0, it was induced with 1 mM IPTG and cells were grown for an additional 18-20 h at 37° C. Cells from 0.5 ml of culture were extracted with 0.5 ml of ethyl acetate. After sonication for 60 min, the sample was centrifuged at 15,000 rpm for 5 min. The solvent layer was analyzed by GC-MS as described in Example 1.
The genomic DNA encoding Synechococcus elongatus PCC7942 orf1593 (YP—400610; putative decarbonylase) (SEQ ID NO: 1) was amplified and cloned into the NdeI and XhoI sites of vector OP-183 (pACYC derivative) under the control of the Ptrc promoter. The resulting construct was cotransformed with OP80-PCC7942—1594 into E. coli MG1655 and the cells were grown at 37° C. in M9 minimal media supplemented with 100 μg/ml spectinomycin and 100 μg/ml carbenicillin. The cells were cultured and extracted as in Example 3 and analyzed by GC-MS as described in Example 1. […]

[3] = system: E. coli MG1655 ΔfadD lacZ::Ptrc-′tesA; experiment: Heterologous expression in a fatty aldehyde-producing E. coli strain with MSMEG—5739, GC-MS; format: cell-based; conditions: decarbonylase coexpressed with carboxylic acid reductase MSMEG—5739
[4] = system: E. coli MG1655 ΔfadE lacZ::Ptrc ′tesA-fadD; experiment: Heterologous expression in a fatty acyl-CoA-producing E. coli strain, GC-MS; format: cell-based; conditions: for conversion of fatty aldehydes into alkanes/alkenes: decarbonylase coexpressed with acyl-ACP reductase in acyl-CoA-producing strain
Description: The genomic DNA encoding Acaryochloris marina MBIC11017 AM1—4041 (YP—001518340; putative fatty aldehyde decarbonylase) (SEQ ID NO: 9) was synthesized and cloned into the NdeI and XhoI sites of vector OP-183 (pACYC derivative) under the control of the Ptrc promoter. The resulting construct was cotransformed with OP80-PCC7942—1594 into E. coli MG1655 ΔfadE lacZ::Ptrc ′tesA-fadD. This strain expresses a cytoplasmic version of the E. coli thioesterase, ′TesA, and the E. coli acyl-CoA synthetase, FadD, under the control of the Ptrc promoter, and therefore produces fatty acyl-CoAs. The cells were grown at 37° C. in M9 minimal media supplemented with 100 μg/ml spectinomycin and 100 μg/ml carbenicillin. The cells were cultured and extracted as in Example 3 and analyzed by GC-MS as described in Example 1.
The genomic DNA encoding Synechocystis sp. PCC6803 sll0208 (NP_442147; putative fatty aldehyde decarbonylase) (SEQ ID NO: 3) was synthesized and cloned into the NdeI and XhoI sites of vector OP-183 (pACYC derivative) under the control of the Ptrc promoter. The genomic DNA encoding Synechocystis sp. PCC6803 sll0209 (NP_442146; acyl-ACP reductase) (SEQ ID NO: 68) was synthesized and cloned into the NcoI and EcoRI sites of vector OP-183 (pACYC derivative) under the control of the Ptrc promoter. The resulting constructs were cotransformed with into E. coli MG1655 ΔfadE lacZ::Ptrc ′tesA-fadD. This strain expresses a cytoplasmic version of the E. coli thioesterase, ′TesA, and the E. coli acyl-CoA synthetase, FadD, under the control of the Ptrc promoter, and therefore produces fatty acyl-CoAs. The cells were grown at 37° C. in M9 minimal media supplemented with 100 μg/ml spectinomycin and 100 μg/ml carbenicillin. The cells were cultured and extracted as in Example 3 and analyzed by GC-MS as described in Example 26.

[5] = in the presence of 2 mM NADPH, read-out: Km for the reduction by PCC7942_orf1594

Work on octadecenoyl-CoA yielded a Km [1, 5] of 82 ± 22 µM.

`NC(=O)C1=CN([C@@H]2O[C@H](COP(=O)(O)OP(=O)(O)OC[C@H]3O[C@@H](n4cnc5c(N)ncnc54)[C@H](OP(=O)(O)O)[C@@H]3O)[C@@H](O)[C@H]2O)C=CC1` [NADPH] was tested, and the Km ([1]; in the presence of 0.5 mM octadecanoyl-CoA, read-out: Km value for NADPH for PCC7942_orf1594) was 400 ± 80 µM.

For `NC(=O)C1=CN([C@@H]2O[C@H](COP(=O)(O)OP(=O)(O)OC[C@H]3O[C@@H](n4cnc5c(N)ncnc54)[C@H](O)[C@@H]3O)[C@@H](O)[C@H]2O)C=CC1` [NADH], the “support of reductase activity as electron donor” value ([1]; reduction of octadecanoyl-CoA to octadecanal) was “did not support reductase activity”.

B1: RS9917—12945: Synechococcus sp. RS9917 putative decarbonylase (SEQ ID NO: 25) (protein, listed as Synechococcus sp.)
chain: MTQLDFASAAYREAYSRINGVVIVGEGLANRHFQMLARRIPADRDELQRLGRMEGDHASAFVGCGRNLGVVADLPLARRLFQPLHDLFKRHDHDGNRAECLVIQGLIVECFAVAAYRHYLPVADAYARPITAAVMNDESEHLDYAETWLQRHFDQVKARVSAVVVEALPLTLAMLQSLAADMRQIGMDPVETLASFSELFREALESVGFEAVEARRLLMRAAARMV
For B1, the “fatty aldehyde decarbonylase activity (alkane/alkene production)” value [2] was “active fatty aldehyde decarbonylase” and the “conversion of fatty aldehydes provided by MSMEG—5739 to alkanes” value [3] was “converted fatty aldehydes provided by MSMEG—5739 to the corresponding alkanes”.

B2: Synechocystis sp. PCC6803 sll0209: Synechocystis sp. PCC6803 acyl-ACP reductase (SEQ ID NO: 68) (protein, listed as Synechocystis sp.)
chain: MFGLIGHLTSLEHAQAVAEDLGYPEYANQGLDFWCSAPPQVVDNFQVKSVTGQVIEGKYVESCFLPEMLTQRRIKAAIRKILNAMALAQKVGLDITALGGFSSIVFEEFNLKQNNQVRNVELDFQRFTTGNTHTAYVICRQVESGAKQLGIDLSQATVAVCGATGDIGSAVCRWLDSKHQVKELLLIARNRQRLENLQEELGRGKIMDLETALPQADIIVWVASMPKGVEIAGEMLKKPCLIVDGGYPKNLDTRVKADGVHILKGGIVEHSLDITWEIMKIVEMDIPSRQMFACFAEAILLEFEGWRTNFSWGRNQISVNKMEAIGEASVKHGFCPLVAL
In the case of B2, the “use of acyl-CoA as substrate to produce fatty aldehydes” value ([4]; reductase coexpressed with a fatty aldehyde decarbonylase) is reported as “able to use acyl-CoA as a substrate” and the “production of fatty aldehydes or fatty alcohols” value ([4]; reductase expressed alone in acyl-CoA-producing strain) is reported as “did not produce any fatty aldehydes or fatty alcohols”.

B3: AM1—4041: Acaryochloris marina MBIC11017 putative decarbonylase (SEQ ID NO: 9) (protein, listed as Acaryochloris marina)
chain: MPQTQAISEIDFYSDTYKDAYSRIDGIVIEGEQEAHENYIRLGEMLPEHQDDFIRLSKMEARHKKGFEACGRNLKVTCDLDFARRFFSDLHKNFQDAAAEDKVPTCLVIQSLIIECFAIAAYNIYIPVADDFARKITESVVKDEYQHLNYGEEWLKAHFDDVKAEIQEANRKNLPIVWRMLNEVDKDAAVLGMEKEALVEDFMIQYGEALSNIGFSTGEIMRMSAYGLVAA
For B3, the “fatty aldehyde decarbonylase activity (alkane/alkene production)” value [2] was “active fatty aldehyde decarbonylase”, the “conversion of fatty aldehydes into alkanes/alkenes” value [4] was “converted into pentadecene, pentadecane and heptadecene” and the “conversion of fatty aldehydes provided by MSMEG—5739 to alkanes” value [3] was “converted fatty aldehydes provided by MSMEG—5739 to the corresponding alkanes”.

B4: octadecenoyl-ACP (conjugate, UniProt Q31QV1 1-80, looked up)
Acyl carrier protein: MSQEDIFSKVKDIVAEQLSVDVAEVKPESSFQNDLGADSLDTVELVMALEEAFDIEIPDEAAEGIATVQDAVDFIASKAA
modifications: octadecenoyl acyl thioester
notes: acyl-ACP (acyl carrier protein) substrate of PCC7942_orf1594 reductase
B4 was tested, and the Km [1, 5] was 7.8 ± 2 µM.

B5: Synechocystis sp. PCC6803 sll0208: Synechocystis sp. PCC6803 putative fatty aldehyde decarbonylase (SEQ ID NO: 3) (protein, listed as Synechocystis sp.)
chain: MPELAVRTEFDYSSEIYKDAYSRINAIVIEGEQEAYSNYLQMAELLPEDKEELTRLAKMENRHKKGFQACGNNLQVNPDMPYAQEFFAGLHGNFQHAFSEGKVVTCLLIQALIIEAFAIAAYNIYIPVADDFARKITEGVVKDEYTHLNYGEEWLKANFATAKEELEQANKENLPLVWKMLNQVQGDAKVLGMEKEALVEDFMISYGEALSNIGFSTREIMRMSSYGLAGV
B5 was tested, and the “conversion of fatty aldehydes into alkanes/alkenes” value [4] was “octadecenal was converted into heptadecene”.
